The record followed here is patent publication US20120039802A1 (published 2012).

T2 sequence (P08581 25-1390): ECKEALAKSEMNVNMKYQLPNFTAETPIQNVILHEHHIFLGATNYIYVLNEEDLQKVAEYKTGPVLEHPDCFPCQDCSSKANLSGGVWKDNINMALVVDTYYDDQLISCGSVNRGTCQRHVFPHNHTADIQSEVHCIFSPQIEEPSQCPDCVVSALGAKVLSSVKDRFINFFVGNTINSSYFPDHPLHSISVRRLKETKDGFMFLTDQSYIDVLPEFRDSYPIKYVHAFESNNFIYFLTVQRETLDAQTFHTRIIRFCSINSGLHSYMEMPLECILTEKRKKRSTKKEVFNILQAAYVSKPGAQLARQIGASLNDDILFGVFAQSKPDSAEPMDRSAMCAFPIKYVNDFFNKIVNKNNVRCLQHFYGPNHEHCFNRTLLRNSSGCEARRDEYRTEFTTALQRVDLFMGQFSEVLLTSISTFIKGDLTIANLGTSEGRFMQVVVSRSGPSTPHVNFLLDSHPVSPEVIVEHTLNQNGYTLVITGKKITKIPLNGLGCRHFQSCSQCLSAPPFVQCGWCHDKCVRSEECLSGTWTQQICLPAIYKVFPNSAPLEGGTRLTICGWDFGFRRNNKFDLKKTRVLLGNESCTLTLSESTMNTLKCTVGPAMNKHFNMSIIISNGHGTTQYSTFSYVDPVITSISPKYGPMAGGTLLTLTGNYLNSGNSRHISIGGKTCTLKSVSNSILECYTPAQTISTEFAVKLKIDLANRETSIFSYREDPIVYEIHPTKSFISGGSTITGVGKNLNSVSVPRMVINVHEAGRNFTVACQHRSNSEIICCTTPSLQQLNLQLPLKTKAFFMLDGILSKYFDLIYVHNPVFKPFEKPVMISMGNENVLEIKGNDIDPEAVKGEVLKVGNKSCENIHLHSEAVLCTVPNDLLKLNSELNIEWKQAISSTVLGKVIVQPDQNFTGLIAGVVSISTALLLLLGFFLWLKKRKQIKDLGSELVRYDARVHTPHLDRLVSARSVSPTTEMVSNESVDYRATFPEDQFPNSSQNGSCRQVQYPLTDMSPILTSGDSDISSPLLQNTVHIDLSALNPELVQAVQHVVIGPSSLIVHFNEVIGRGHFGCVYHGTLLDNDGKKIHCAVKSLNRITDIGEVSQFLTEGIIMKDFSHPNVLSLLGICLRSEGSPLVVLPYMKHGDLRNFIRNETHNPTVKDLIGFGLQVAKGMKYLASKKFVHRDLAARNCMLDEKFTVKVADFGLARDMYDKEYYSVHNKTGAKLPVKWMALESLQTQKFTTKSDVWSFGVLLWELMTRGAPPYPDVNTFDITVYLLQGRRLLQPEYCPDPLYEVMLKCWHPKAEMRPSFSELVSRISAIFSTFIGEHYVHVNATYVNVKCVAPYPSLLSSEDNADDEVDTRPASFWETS

The target in one assay is T1, cMet-Fc fusion protein (extracellular domain of the cMet receptor expressed as an Fc-fusion protein) (human, UniProt P08581 25-932).
T1 construct: extracellular domain; also called soluble cMet-Fc-fusion protein; soluble cMet receptor; not shown: Fc part
T1 sequence (P08581 25-932): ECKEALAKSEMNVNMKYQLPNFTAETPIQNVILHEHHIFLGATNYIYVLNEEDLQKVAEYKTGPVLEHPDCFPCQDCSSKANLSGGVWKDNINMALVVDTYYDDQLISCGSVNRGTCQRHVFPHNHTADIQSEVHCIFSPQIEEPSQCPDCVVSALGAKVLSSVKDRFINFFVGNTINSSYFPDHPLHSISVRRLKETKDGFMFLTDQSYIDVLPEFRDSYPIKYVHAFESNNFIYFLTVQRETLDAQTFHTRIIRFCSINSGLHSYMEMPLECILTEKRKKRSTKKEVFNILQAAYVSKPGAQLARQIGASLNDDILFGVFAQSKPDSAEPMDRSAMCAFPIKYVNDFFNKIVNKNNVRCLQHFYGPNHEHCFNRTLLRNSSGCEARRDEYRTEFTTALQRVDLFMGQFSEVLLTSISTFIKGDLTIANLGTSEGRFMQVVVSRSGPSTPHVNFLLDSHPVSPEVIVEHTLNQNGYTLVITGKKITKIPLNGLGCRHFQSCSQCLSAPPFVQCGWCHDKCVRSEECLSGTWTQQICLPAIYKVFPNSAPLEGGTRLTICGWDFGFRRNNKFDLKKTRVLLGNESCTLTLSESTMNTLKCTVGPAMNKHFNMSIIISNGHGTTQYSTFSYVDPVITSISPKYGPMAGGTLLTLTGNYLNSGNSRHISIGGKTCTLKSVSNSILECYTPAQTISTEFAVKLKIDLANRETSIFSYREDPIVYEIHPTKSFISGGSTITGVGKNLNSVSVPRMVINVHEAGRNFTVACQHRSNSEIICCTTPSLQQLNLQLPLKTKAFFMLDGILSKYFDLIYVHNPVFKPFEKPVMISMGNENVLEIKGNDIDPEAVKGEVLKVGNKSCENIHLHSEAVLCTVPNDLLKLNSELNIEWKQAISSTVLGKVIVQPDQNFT
The assay can be described thus: phage ELISA, cMet-Fc vs TRAIL-Fc. An outline of the steps: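 Specificity check: phage displaying peptides incubated 2 h at room temperature on wells coated with 0.5 μg/mL cMet-Fc versus TRAIL-Fc, after blocking with 3% BSA/PBST. HRP-anti-M13 antibody detected binding phage.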
For the molecule AQVEDMATVHFKFNPATHEVIW [524-H02 peptide-displaying phage (SEQ ID NO: 492)], the “Protein ELISA (fold over background)” value is 3.2 fold.

As to AQGGRYPFYDTDWFKWEMYVL [527-A10 peptide-displaying phage (SEQ ID NO: 496)], the “Protein ELISA (fold over background)” value turned out to be 3.8 fold.

Consider AQKTWFLEADLFQMFQEVTWQF [103-C04 peptide-displaying phage (SEQ ID NO: 490)], for which the “Protein ELISA (fold over background)” value was determined as 3 fold.

Take AQQWMFQIHQSMAWPYEWIDSY [524-D07 peptide-displaying phage (SEQ ID NO: 494)]: the “Protein ELISA (fold over background)” value turned out to be 3.9 fold.

AQSDHDHAHWGVKHWPFRRYQ [93-B10 peptide-displaying phage (SEQ ID NO: 482)]: the “Protein ELISA (fold over background)” value is 3.1 fold.

With AQDNTADQMFNGFHVLAMYMV [117-E09 peptide-displaying phage (SEQ ID NO: 481)], the “Protein ELISA (fold over background)” value is 3.3 fold.

Consider AQMWHRVHDPGYTFEVTWLWDN [166-H04 peptide-displaying phage (SEQ ID NO: 488)], for which the “Protein ELISA (fold over background)” value was determined as 3 fold.

Regarding AQVGESLDDGWTFFSDKWFDFF [27-D10 peptide-displaying phage (SEQ ID NO: 485)], the “Protein ELISA (fold over background)” value is 3 fold.

In the case of AQWNQWDEFMWFLNPPPIGLMW [151-B08 peptide-displaying phage (SEQ ID NO: 480)], the “Protein ELISA (fold over background)” value came to 3.3 fold.

AQRDYLFYWNDGSYQPWQVFVG [523-A04 peptide-displaying phage (SEQ ID NO: 493)]: the “Protein ELISA (fold over background)” value worked out at 5.5 fold.

On to AQWGAVDNDWYDWEMEQIWMFE [527-E08 peptide-displaying phage (SEQ ID NO: 491)], for which the “Protein ELISA (fold over background)” value was determined as 3.2 fold.

As to AGVIVCNLSMMYCLYPGT [499-C09 peptide-displaying phage (SEQ ID NO: 023)], the “Protein ELISA (fold over background)” value came out at 3.2 fold.

Turning to AGWFECEFGFWGCNWLGT [437-A09 peptide-displaying phage (SEQ ID NO: 018)], the “Protein ELISA (fold over background)” value worked out at 3.9 fold.

A further assay has as its target T2, human cMet expressed on 3T3 cells (human, UniProt P08581 25-1390).
T2 construct: whole, on cells; cells fixed with glutaraldehyde; also called cell surface-expressed human cMet; 3T3 cells that over-express human cMet
The assay can be described thus: whole cell phage ELISA, 3T3 human cMet vs 3T3. An outline of the steps:
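Bound phage was detected with an HRP-conjugated anti-M13 antibody after PBST washes. The cells were cMet-over-expressing 3T3, read against plain 3T3.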
(In an ELISA, binding on a coated surface is turned into a signal by an enzyme label.)
As to AQVEDMATVHFKFNPATHEVIW [524-H02 peptide-displaying phage (SEQ ID NO: 492)], the “WC ELISA (fold over background)” value was 1.53 fold.

Regarding AQGGRYPFYDTDWFKWEMYVL [527-A10 peptide-displaying phage (SEQ ID NO: 496)], the “WC ELISA (fold over background)” value turned out to be 1.3 fold.

For AQKTWFLEADLFQMFQEVTWQF [103-C04 peptide-displaying phage (SEQ ID NO: 490)], the “WC ELISA (fold over background)” value came out at 1.4 fold.

For AQQWMFQIHQSMAWPYEWIDSY [524-D07 peptide-displaying phage (SEQ ID NO: 494)], the “WC ELISA (fold over background)” value worked out at 1.23 fold.

AQSDHDHAHWGVKHWPFRRYQ [93-B10 peptide-displaying phage (SEQ ID NO: 482)]: the “WC ELISA (fold over background)” value amounted to 1.2 fold.

Consider AQDNTADQMFNGFHVLAMYMV [117-E09 peptide-displaying phage (SEQ ID NO: 481)], for which the “WC ELISA (fold over background)” value came out at 1.37 fold.

As to AQMWHRVHDPGYTFEVTWLWDN [166-H04 peptide-displaying phage (SEQ ID NO: 488)], the “WC ELISA (fold over background)” value was 1.27 fold.

For AQVGESLDDGWTFFSDKWFDFF [27-D10 peptide-displaying phage (SEQ ID NO: 485)], the “WC ELISA (fold over background)” value turned out to be 1.17 fold.

As to AQWNQWDEFMWFLNPPPIGLMW [151-B08 peptide-displaying phage (SEQ ID NO: 480)], the “WC ELISA (fold over background)” value came to 1.23 fold.

Turning to AQRDYLFYWNDGSYQPWQVFVG [523-A04 peptide-displaying phage (SEQ ID NO: 493)], the “WC ELISA (fold over background)” value was found to be 1.3 fold.

Regarding AQWGAVDNDWYDWEMEQIWMFE [527-E08 peptide-displaying phage (SEQ ID NO: 491)], the “WC ELISA (fold over background)” value turned out to be 1.23 fold.

AGVIVCNLSMMYCLYPGT [499-C09 peptide-displaying phage (SEQ ID NO: 023)]: the “WC ELISA (fold over background)” value was found to be 1.33 fold.

As to AGWFECEFGFWGCNWLGT [437-A09 peptide-displaying phage (SEQ ID NO: 018)], the “WC ELISA (fold over background)” value came to 1.13 fold.

The next assay deals with T1, cMet-Fc fusion protein (extracellular …). The assay can be described thus: phage ELISA on cMet-Fc, competitor HGF 100 ng/mL. An outline of the steps: (§1)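 Plates coated with 0.5 μg/mL cMet-Fc, with TRAIL-Fc as background, then blocked with 3% BSA. Bound phage detected with HRP anti-M13 antibody.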
With AQVEDMATVHFKFNPATHEVIW [524-H02 peptide-displaying phage (SEQ ID NO: 492)], the “% of binding in the absence of HGF” value amounted to 26%.

Take AQGGRYPFYDTDWFKWEMYVL [527-A10 peptide-displaying phage (SEQ ID NO: 496)]: the “% of binding in the absence of HGF” value was 84%.

On to AQKTWFLEADLFQMFQEVTWQF [103-C04 peptide-displaying phage (SEQ ID NO: 490)], for which the “% of binding in the absence of HGF” value came out at 73%.

Regarding AQQWMFQIHQSMAWPYEWIDSY [524-D07 peptide-displaying phage (SEQ ID NO: 494)], the “% of binding in the absence of HGF” value came out at 105%.

For the molecule AQSDHDHAHWGVKHWPFRRYQ [93-B10 peptide-displaying phage (SEQ ID NO: 482)], the “% of binding in the absence of HGF” value amounted to 0%.

AQDNTADQMFNGFHVLAMYMV [117-E09 peptide-displaying phage (SEQ ID NO: 481)]: the “% of binding in the absence of HGF” value amounted to 109%.

Regarding AQMWHRVHDPGYTFEVTWLWDN [166-H04 peptide-displaying phage (SEQ ID NO: 488)], the “% of binding in the absence of HGF” value came to 77%.

As for AQVGESLDDGWTFFSDKWFDFF [27-D10 peptide-displaying phage (SEQ ID NO: 485)], the “% of binding in the absence of HGF” value came out at 111%.

As to AQWNQWDEFMWFLNPPPIGLMW [151-B08 peptide-displaying phage (SEQ ID NO: 480)], the “% of binding in the absence of HGF” value came to 102%.

In the case of AQRDYLFYWNDGSYQPWQVFVG [523-A04 peptide-displaying phage (SEQ ID NO: 493)], the “% of binding in the absence of HGF” value amounted to 133%.

Take AQWGAVDNDWYDWEMEQIWMFE [527-E08 peptide-displaying phage (SEQ ID NO: 491)]: the “% of binding in the absence of HGF” value amounted to 98%.

As to AGVIVCNLSMMYCLYPGT [499-C09 peptide-displaying phage (SEQ ID NO: 023)], the “% of binding in the absence of HGF” value came out at 91%.

AGWFECEFGFWGCNWLGT [437-A09 peptide-displaying phage (SEQ ID NO: 018)]: the “% of binding in the absence of HGF” value came out at 89%.

The next assay shares this target. The assay can be described thus: phage ELISA on cMet-Fc, competitor HGF 500 ng/mL. An outline of the steps: as §1
Consider AQVEDMATVHFKFNPATHEVIW [524-H02 peptide-displaying phage (SEQ ID NO: 492)], for which the “% of binding in the absence of HGF” value was found to be 25%.

Consider AQGGRYPFYDTDWFKWEMYVL [527-A10 peptide-displaying phage (SEQ ID NO: 496)], for which the “% of binding in the absence of HGF” value is 78%.

For AQKTWFLEADLFQMFQEVTWQF [103-C04 peptide-displaying phage (SEQ ID NO: 490)], the “% of binding in the absence of HGF” value was determined as 86%.

As for AQQWMFQIHQSMAWPYEWIDSY [524-D07 peptide-displaying phage (SEQ ID NO: 494)], the “% of binding in the absence of HGF” value came out at 104%.

Turning to AQSDHDHAHWGVKHWPFRRYQ [93-B10 peptide-displaying phage (SEQ ID NO: 482)], the “% of binding in the absence of HGF” value was determined as 0%.

In the case of AQDNTADQMFNGFHVLAMYMV [117-E09 peptide-displaying phage (SEQ ID NO: 481)], the “% of binding in the absence of HGF” value worked out at 102%.

On to AQMWHRVHDPGYTFEVTWLWDN [166-H04 peptide-displaying phage (SEQ ID NO: 488)], for which the “% of binding in the absence of HGF” value amounted to 85%.

AQVGESLDDGWTFFSDKWFDFF [27-D10 peptide-displaying phage (SEQ ID NO: 485)]: the “% of binding in the absence of HGF” value came to 131%.

As for AQWNQWDEFMWFLNPPPIGLMW [151-B08 peptide-displaying phage (SEQ ID NO: 480)], the “% of binding in the absence of HGF” value came out at 368%.

AQRDYLFYWNDGSYQPWQVFVG [523-A04 peptide-displaying phage (SEQ ID NO: 493)]: the “% of binding in the absence of HGF” value came to 143%.

For the molecule AQWGAVDNDWYDWEMEQIWMFE [527-E08 peptide-displaying phage (SEQ ID NO: 491)], the “% of binding in the absence of HGF” value is 95%.

Take AGVIVCNLSMMYCLYPGT [499-C09 peptide-displaying phage (SEQ ID NO: 023)]: the “% of binding in the absence of HGF” value turned out to be 70%.

As for AGWFECEFGFWGCNWLGT [437-A09 peptide-displaying phage (SEQ ID NO: 018)], the “% of binding in the absence of HGF” value was 78%.
